According to patent US20220281965A1 (AstraZeneca / MedImmune, published 2022):

T1: mature recombinant human GDF-15 H202D variant with an N-terminal Flag and His tag, biotinylated (human, UniProt Q99988 197-308, chemically biotinylated with EZ link Sulfo-NHS-LC-Biotin, sites not stated)
T1 construct: also called Human H202D; not shown: N-terminal Flag and His tags
T1 chain: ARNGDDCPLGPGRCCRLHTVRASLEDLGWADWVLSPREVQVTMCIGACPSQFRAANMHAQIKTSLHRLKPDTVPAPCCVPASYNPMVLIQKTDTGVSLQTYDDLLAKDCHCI

T2: mature recombinant human GDF-15 with an N-terminal Flag and His tag, biotinylated (human, UniProt Q99988 197-308, chemically biotinylated with EZ link Sulfo-NHS-LC-Biotin, sites not stated)
T2 construct: not shown: N-terminal Flag and His tags
T2 sequence: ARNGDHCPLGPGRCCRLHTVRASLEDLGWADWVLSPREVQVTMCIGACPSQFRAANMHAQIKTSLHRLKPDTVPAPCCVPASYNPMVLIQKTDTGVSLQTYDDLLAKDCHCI

T3: mature recombinant cynomolgus GDF-15 with an N-terminal Flag and His tag, biotinylated (cynomolgus, UniProt G7PWZ3 197-308, chemically biotinylated with EZ link Sulfo-NHS-LC-Biotin, sites not stated)
T3 construct: not shown: N-terminal Flag and His tags
T3 sequence: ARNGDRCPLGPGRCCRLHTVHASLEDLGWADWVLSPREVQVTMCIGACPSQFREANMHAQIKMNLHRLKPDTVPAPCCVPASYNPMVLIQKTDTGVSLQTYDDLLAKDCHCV

T4: mature recombinant mouse GDF-15 with Flag and His tags (mouse, UniProt Q9Z0J7 189-303)
T4 construct: also called Flag tagged mouse GDF-15; not shown: FLAG and poly-His tags immediately C-terminal to the furin cleavage site (N-terminal on the mature protein)
T4 sequence: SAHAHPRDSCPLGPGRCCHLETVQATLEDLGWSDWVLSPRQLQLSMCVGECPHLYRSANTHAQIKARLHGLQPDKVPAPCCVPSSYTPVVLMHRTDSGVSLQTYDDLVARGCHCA

T5: mature human GDF-15 (human, UniProt Q99988 197-308)
T5 construct: Homodimer; also called hGDF-15; recombinant hu-GDF15
T5 sequence: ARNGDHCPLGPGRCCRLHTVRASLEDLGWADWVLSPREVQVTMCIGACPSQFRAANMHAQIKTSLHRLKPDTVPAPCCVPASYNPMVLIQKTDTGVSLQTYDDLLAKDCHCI

T6: biotinylated cynomolgus GDF-15 (cynomolgus, UniProt G7PWZ3 197-308, biotinylated, sites not stated)
T6 construct: also called Cyno GDF-15
T6 sequence: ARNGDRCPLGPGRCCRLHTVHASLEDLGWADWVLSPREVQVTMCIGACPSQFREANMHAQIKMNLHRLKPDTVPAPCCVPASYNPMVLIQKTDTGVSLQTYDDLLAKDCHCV

T7: mouse GDF-15 (mouse, UniProt Q9Z0J7 189-303)
T7 construct: also called mGDF-15
T7 sequence: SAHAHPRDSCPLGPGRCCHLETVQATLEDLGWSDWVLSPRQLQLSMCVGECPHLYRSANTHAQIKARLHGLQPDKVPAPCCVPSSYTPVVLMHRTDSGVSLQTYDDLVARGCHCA

T8: biotinylated human H202D GDF-15 variant (human, UniProt Q99988 197-308, biotinylated, sites not stated)
T8 construct: also called Human GDF-15 H202D
T8 chain: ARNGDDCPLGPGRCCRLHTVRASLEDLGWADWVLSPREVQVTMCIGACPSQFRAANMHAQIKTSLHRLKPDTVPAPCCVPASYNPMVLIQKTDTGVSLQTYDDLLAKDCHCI


Tests used:
[1] = molecular target: T1, mature recombinant human GDF-15 H202D …; assay: SPR Biacore 8K, 25 C, biotinylated GDF-15 on streptavidin C1 chip, Fab as analyte
Procedure: (§1) The experiments were carried out using mature recombinant human GDF-15, human GDF-15 H202D variant, mouse GDF-15, and cynomolgus GDF-15 with an N-terminal Flag and His tag. All species were chemically biotinylated using EZ link Sulfo-NHS-LC-Biotin (Thermo).
(§2) Streptavidin was covalently immobilized to a C1 chip surface using standard amine coupling techniques at a concentration of 4 μg/ml in 10 mM Sodium acetate pH 4.5. Recombinant biotinylated GDF-15 species were titrated onto the streptavidin chip surface in HBS-EP+ buffer to enable Fab binding.
(§3) Multiple buffer-only injections were made under the same conditions to allow for double reference subtraction of the final sensorgram sets, which were analyzed using Biacore 8K Evaluation Software. The chip surface was fully regenerated with pulses of 50 mM NaOH.

[2] = molecular target: T2, mature recombinant human GDF-15 with an …; assay: as above
Procedure: as §1, §2, §3

[3] = molecular target: T3, mature recombinant cynomolgus GDF-15 …; assay: as above
Procedure: as §1, §2, §3

[4] = molecular target: T4, mature recombinant mouse GDF-15 with …; assay: as above
Procedure: as §1, §2, §3

mature human GDF-15 = molecular target: T5, mature human GDF-15; assay: HTRF epitope competition; competitor DyLight 650 labelled Antibody A; Europium labelled human GDF-15
From the text: Antibodies from the immunizations with human GDF-15, in the form of crude supernatants from the immunization or in the form of purified IgGs, were chosen on the basis that they bind and compete with an epitope recognized by a control anti-GDF-15 antibody “Antibody A”. A biochemical epitope competition format was applied using an HTRF epitope competition assay that measured the binding of DyLight 650 labelled Antibody A to Europium labelled human GDF-15 (Prospec). In the absence of Antibody A binding, there is no detectable FRET fluorescence. When Antibody A binds to GDF-15, the resulting physical proximity between the secondary reagent donor/acceptor pair results in FRET. Competition with an antibody that recognizes the same or similar epitope will result in a dose dependent reduction of the FRET signal. FRET was measured ratiometrically [665 nm (acceptor)/620 nm (donor)] on an Envision plate reader, and IC₅₀ values were determined by curve fitting the data to a four parameter logistic equation using PRISM 6® software (Graphpad).

[5] = molecular target: T6, biotinylated cynomolgus GDF-15; assay: HTRF binding assay, biotinylated antigen, titration of antibody
From the text: (§4) Supernatants generated from the immunizations with human GDF-15 and purified IgGs were screened to identify IgGs with specific binding to human, cynomolgus, or mouse GDF-15. The HTRF (Homogeneous Time Resolved Fluorescence) assay is based on detection of a measurable FRET signal upon binding of a titration of test antibody to biotinylated human H202D GDF-15 variant, cynomolgus GDF-15 and mouse GDF-15. Europium cryptate (EuK) labelled Streptavidin and anti-human IgG XL665 (Cis Bio) were used as secondary detection reagents serving as energy donor and acceptor respectively. In the absence of test antibody binding, there is no detectable FRET fluorescence. When test antibody binds to GDF-15, the resulting physical proximity between the secondary reagent donor/acceptor pair results in FRET. FRET was measured ratiometrically [665 nm (acceptor)/620 nm (donor)] on an Envision plate reader, and data plotted using PRISM 6® software (Graphpad).

mouse GDF-15 = molecular target: T7, mouse GDF-15; assay: as above
From the text: as §4

[6] = molecular target: T8, biotinylated human H202D GDF-15 variant; assay: as above
From the text: as §4

Kd [1] [nM]	koff [1] [s⁻¹]	kon [1] [M⁻¹ s⁻¹]	Kd [2] [nM]	koff [2] [s⁻¹]	kon [2] [M⁻¹ s⁻¹]	Kd [3] [nM]	koff [3] [s⁻¹]	kon [3] [M⁻¹ s⁻¹]	Kd [4] [nM]	koff [4] [s⁻¹]	kon [4] [M⁻¹ s⁻¹]	IC50 (mature human GDF-15) [nM]	binding result [5]	binding result (mouse GDF-15)	binding result [6]	Binder
2.39	0.00595	2.49e+06	2.35	0.00558	2.39e+06	5.47	0.0145	2.64e+06	916	0.54	591000	–	–	–	–	AB1170244 Fab (Fab, V domains shown, Fab of the humanized antibody, expressed as in Spooner et al. 2015) VH: EVQLVESGGGLVKPGGSLRLSCAASGFTFSSYAMSWVRQAPGKGLEWVAYISSGGDNIYYADTVKGRFTISRDNSKNTLYLQMNSLKTEDTAVYYCTRALVENAYFDYWGQGTTVTVSS VL: DSVLTQSPDSLAVSLGERATINCRASKSVSTSTYSYMHWYQQKPGQPPKLLIKYASYLESGVPDRFSGSGSGTDFTLKISRVEAEDVGVYYCQHSREFPWTFGGGTKVEIK
10.5	0.0321	3.07e+06	10.2	0.0315	3.1e+06	20.9	0.0712	3.42e+06	2400	1.5	643000	–	–	–	–	AB1170245 Fab (Fab, V domains shown, Fab of the humanized antibody, expressed as in Spooner et al. 2015) VH: EVQLVESGGGLVKPGGSLRLSCAASGFTFSSYAMSWVRQAPGKGLEWVAYISSGGDYIYYADTVKGRFTISRDNSKNTLYLQMNSLKTEDTAVYYCTRALVDNAYFDYWGQGTTVTVSS VL: DIVLTQSPDSLAVSLGERATINCRASKSVSTSSYSYMHWYQQKPGQPPKLLIKYASYLEFGVPSRFSGSGSGTDFTLTISSLQPEDVATYYCQHSREFPWTFGGGTKVEIK
–	–	–	–	–	–	–	–	–	–	–	–	1.37	binds	binds	–	AB1170074 (antibody, V domains shown) VH: EVQLQQSGRELVKPGASVKMSCKASGYTFTNYVMHWVKQKPGQGLEWIGYINPHNDGTEYSEKFKGKATLTSDKSSSTAYMELSSLTSEDSAVYYCARWYYDGGYFAYWGQGTLVTVSA VL: DIVMTQSPATLSVTPGDRVSLSCRASQSISDYLHWYQQKSHESPRLLIKYASQSISGIPSRFSGSGSGSDFTLSINSVEPEDVGVYYCQNGHSFPLTFGAGTKLELK
–	–	–	–	–	–	–	–	–	–	–	–	0.864	binds	–	binds	AB1170019 (antibody, V domains shown) VH: EVQLQQSGPELVKPGASVKIPCKASGYTFTDYNMDWVKQSHGKSLEWIGDINPNNGGTFYNQKFKDKATLTVDKSSSTAYMELRSLTSEDTAVYYCAREEKLYFGLMDYWGQGTSVTVSS VL: DIQMTQSPASLSASVGETVTITCRASENIYSYLAWYQQKQGKSPQLLVYNAKTLAEGVPSRFSGSGSGIQFSLKINILQPEDFGNYYCQHQYGSPPTFGGGTKLEIK
0.156	0.000696	4.45e+06	0.159	0.000663	4.18e+06	0.476	0.00279	5.87e+06	107	0.329	3.07e+06	–	–	–	–	AB1170241 Fab (Fab, V domains shown, Fab of the humanized antibody, expressed as in Spooner et al. 2015) VH: QVQLVQSGSELKKPGASVKVSCKASGYTFTDYNMDWIRQSPGKGLEWIGDINPNQGGTFYNQKFKDRATLTVDKSTSTAYMELRSLRSDDTAVYYCAREEKLYFGLMDYWGQGTTVTVSS VL: DIQMTQSPSSLSASVGDRVTITCRASENIYSYLAWYQQKPGKAPKLLVYNAKTLAEGVPSRFSGSGSGIDFTLTISSLQPEDFATYYCQHQYGSPPTFGQGTKLEIK
0.09	0.000425	4.85e+06	0.09	0.000422	4.74e+06	0.273	0.00169	6.23e+06	75	0.281	3.9e+06	–	–	–	–	AB1170243 Fab (Fab, V domains shown, Fab of the humanized antibody, expressed as in Spooner et al. 2015) VH: QVQLVQSGSELKKPGASVKVSCKASGYTFTDYNMDWIRQSPGKGLEWIGDINPNNGGTFYNQKFKDRATLTVDKSTSTAYMELRSLRSDDTAVYYCAREEKLYFGLMDYWGQGTTVTVSS VL: DIQMTQSPSSLSASVGDRVTITCRASENIYSYLAWYQQKPGKAPKLLVYNAKTLAEGVPSRFSGSGSGIDFTLTISSLQPEDFATYYCQHQYGSPPTFGQGTKLEIK
3.13	0.0233	7.47e+06	3.22	0.0247	7.68e+06	2.88	0.0245	8.5e+06	908	0.826	903000	–	–	–	–	AB1170242 Fab (Fab, V domains shown, Fab of the humanized antibody, expressed as in Spooner et al. 2015) VH: QVQLQESGPGLLKPSQTLSLTCTVSGFSLSTYGMGVGWIRQPAGKGLEWLANIWWNDDKYYNSALKSRLTISKDTSKNQVSLKLSSVTAADTAVYYCAQEVYGWFAYWGQGTLVTVSS VL: DIQMTQSPSTLSASVGDRVTITCKASQNVGTNVAWYQQKPGQPPKALIYSASYRYSGVPDRFSGSGSGTDFTLTISSLQAEDVAVYYCQQYNSYPLTFGQGTKLEIK
3.04	0.0113	3.72e+06	3.13	0.0114	3.63e+06	3.11	0.0129	4.15e+06	1140	0.928	804000	–	–	–	–	AB1170249 Fab (Fab, V domains shown, Fab of the humanized antibody, expressed as in Spooner et al. 2015) VH: QVQLQESGPGLLKPSQTLSLTCTVSGFSLSTYGMGVGWIRQPLGKGLEWLANIWWNDDKYYNSALKSRLTISKDTSKNQVSLKLSSVTAADTAVYYCAQMAYSWFAYWGQGTLVTVSS VL: DIQMTQSPSFLSASVGDRVTITCKASQNMDTNVAWYQQKPGQPPKALIYSASYRYSGVPDRFSGSGSGTDFTLTISSLQAEDVAVYYCQQYNSYPFTFGQGTKLEIK
1.63	0.00478	2.92e+06	1.64	0.00489	2.97e+06	2.8	0.0078	2.79e+06	0.14	0.000244	1.75e+06	–	–	–	–	AB1520085 Fab (Fab, V domains shown, Fab of the anti-mouse GDF-15 mouse IgG1, expressed as in Spooner et al. 2015) VH: QVQLQQPGAELVMPGASVKMSCKASGYTFTDYWMHWVKQRPGQGLEWIGVIDTSESYTSYNQKFKGKATLTVDESSSTAYMQLSSLTSEDSAVYFCARGGTTVVLDYWGQGTTLTVSS VL: DIVMTQSQKFMSTSVGDRVSVTCKASQNVGTAVAWYQKKPGQSPKALIYSASTRYTGVPDRFTGSGSGTDFTLTISNVQSEDLAEYFCQQYSSSPWTFGGGTKLELK
